Self-cleavage data for 54 variants are collected here from the RNAGym collection of RNA variant scans (doi:10.7554/elife.80360).

B1: Twister Ribozyme (parent)
chain: AACACUGCCAAUGCCGGUCCCAAGCCCGGAUAAAAGUGGAGGGGGCGG

The variants in the data set derive from B1. The experiment in a line: self-cleavage, relative activity (ratio to wild type); higher = more cleavage; co-transcriptional.
Take AACACUGCCAAUGCCGGUCCCAAGCCCGGAUUAAAGUGGAGGGGGCGA: the self-cleavage was 0.942.

Take AACACUGCCAAUGCCGGUCCCAAGCCCGGAUACAAGUGGAAGGGGCGG: the self-cleavage is 0.309.

Regarding AACACUGCCAAUGCCGGUCCCAAGCCCGGAUACAAGUGGACGGGGCGG, the self-cleavage was 0.151.

On to AACACUGCCAAUGCCGGUCCCAAGCCCGGAUACAAGUGAAGGGGGCGG, for which the self-cleavage worked out at 0.438.

Regarding AACACUGCCAAUGCCGGUCCCAAGCCCGGAUAGAACUGGAGGGGGCGG, the self-cleavage was 0.303.

Turning to AACACUGCCAAUGCCGGUCCCAAGCCCGGAUUAACGUGGAGGGGGCGG, the self-cleavage came out at 1.01.

On to AACACUGCCAAUGCCGGUCCCAAGCCCGGAUUAAGGUGGAGGGGGCGG, for which the self-cleavage worked out at 0.746.

In the case of AACACUGCCAAUGCCGGUCCCAAGCCCGGAUACAAGUGGAGGGGGCCG, the self-cleavage came to 0.274.

With AACACUGCCAAUGCCGGUCCCAAGCCCGGAUAGAAGUGGAGGGGGAGG, the self-cleavage turned out to be 0.894.

As to AACACUGCCAAUGCCGGUCCCAAGCCCGGAUAGAAGUGGAGGGGGUGG, the self-cleavage came out at 0.851.

Consider AACACUGCCAAUGCCGGUCCCAAGCCCGGAUUACAGUGGAGGGGGCGG, for which the self-cleavage was 0.231.

AACACUGCCAAUGCCGGUCCCAAGCCCGGAUAGAAGUGGAGGGGACGG: the self-cleavage came out at 0.803.

With AACACUGCCAAUGCCGGUCCCAAGCCCGGAUAGAAGUGGGGGGGGCGG, the self-cleavage turned out to be 0.195.

Take AACACUGCCAAUGCCGGUCCCAAGCCCGGAUAGAAGUGGCGGGGGCGG: the self-cleavage came to 0.17.

Regarding AACACUGCCAAUGCCGGUCCCAAGCCCGGAUACAAGUGGAGGAGGCGG, the self-cleavage amounted to 0.17.

Turning to AACACUGCCAAUGCCGGUCCCAAGCCCGGAUACAAGUGGAGGGUGCGG, the self-cleavage was 0.97.

As to AACACUGCCAAUGCCGGUCCCAAGCCCGGAUAGAAGUUGAGGGGGCGG, the self-cleavage stood at 0.861.

For the variant AACACUGCCAAUGCCGGUCCCAAGCCCGGAUUAAAGUGGAGGGUGCGG, the self-cleavage worked out at 0.885.

As for AACACUGCCAAUGCCGGUCCCAAGCCCGGAUUAAAGUGGAGGGAGCGG, the self-cleavage was found to be 0.919.

Turning to AACACUGCCAAUGCCGGUCCCAAGCCCGGAUUAAAGUAGAGGGGGCGG, the self-cleavage worked out at 0.85.

With AACACUGCCAAUGCCGGUCCCAAGCCCGGAUUAAAGUUGAGGGGGCGG, the self-cleavage was 0.94.

In the case of AACACUGCCAAUGCCGGUCCCAAGCCCGGAUAGCAGUGGAGGGGGCGG, the self-cleavage worked out at 0.108.

Consider AACACUGCCAAUGCCGGUCCCAAGCCCGGAUAGGAGUGGAGGGGGCGG, for which the self-cleavage worked out at 0.253.

As for AACACUGCCAAUGCCGGUCCCAAGCCCGGAUAGUAGUGGAGGGGGCGG, the self-cleavage stood at 0.461.

On to AACACUGCCAAUGCCGGUCCCAAGCCCGGAUUAAACUGGAGGGGGCGG, for which the self-cleavage turned out to be 0.435.

As for AACACUGCCAAUGCCGGUCCCAAGCCCGGAUUAAAUUGGAGGGGGCGG, the self-cleavage was 0.148.

For the variant AACACUGCCAAUGCCGGUCCCAAGCCCGGAUUAAAGUGGAGGCGGCGG, the self-cleavage worked out at 0.139.

Turning to AACACUGCCAAUGCCGGUCCCAAGCCCGGAUACGAGUGGAGGGGGCGG, the self-cleavage was determined as 0.82.

As to AACACUGCCAAUGCCGGUCCCAAGCCCGGAUACCAGUGGAGGGGGCGG, the self-cleavage amounted to 0.383.

Regarding AACACUGCCAAUGCCGGUCCCAAGCCCGGAUAGAAGUGGAGGAGGCGG, the self-cleavage came out at 0.268.

Take AACACUGCCAAUGCCGGUCCCAAGCCCGGAUAGAAGUGGAGGCGGCGG: the self-cleavage stood at 0.144.

On to AACACUGCCAAUGCCGGUCCCAAGCCCGGAUACAAGUGGAGGGGGCGU, for which the self-cleavage came to 1.04.

For the variant AACACUGCCAAUGCCGGUCCCAAGCCCGGAUAGAAGUGGACGGGGCGG, the self-cleavage stood at 0.197.

AACACUGCCAAUGCCGGUCCCAAGCCCGGAUAGAAGUGGAGGGCGCGG: the self-cleavage is 0.752.

Turning to AACACUGCCAAUGCCGGUCCCAAGCCCGGAUAGAAGUGGAGGGUGCGG, the self-cleavage was 0.86.

Take AACACUGCCAAUGCCGGUCCCAAGCCCGGAUUAAAGUGGAAGGGGCGG: the self-cleavage came to 0.488.

AACACUGCCAAUGCCGGUCCCAAGCCCGGAUACAAGUCGAGGGGGCGG: the self-cleavage worked out at 0.918.

As for AACACUGCCAAUGCCGGUCCCAAGCCCGGAUAGACGUGGAGGGGGCGG, the self-cleavage was 0.858.

Consider AACACUGCCAAUGCCGGUCCCAAGCCCGGAUACAAGUGGAGGGGGUGG, for which the self-cleavage turned out to be 0.961.

On to AACACUGCCAAUGCCGGUCCCAAGCCCGGAUACAAGUGGAGGGGGAGG, for which the self-cleavage was determined as 0.934.

Consider AACACUGCCAAUGCCGGUCCCAAGCCCGGAUACAAGUGGAGGGGGGGG, for which the self-cleavage is 0.751.

For AACACUGCCAAUGCCGGUCCCAAGCCCGGAUUAAAGUGGAGCGGGCGG, the self-cleavage is 0.437.

In the case of AACACUGCCAAUGCCGGUCCCAAGCCCGGAUUAAAGUGGAGAGGGCGG, the self-cleavage was 0.324.

Turning to AACACUGCCAAUGCCGGUCCCAAGCCCGGAUUAAAGUGGAGGGGGUGG, the self-cleavage was 1.02.

On to AACACUGCCAAUGCCGGUCCCAAGCCCGGAUAGAAGUGGAGCGGGCGG, for which the self-cleavage amounted to 0.268.

As for AACACUGCCAAUGCCGGUCCCAAGCCCGGAUAGAAGUGGAGUGGGCGG, the self-cleavage turned out to be 0.17.

AACACUGCCAAUGCCGGUCCCAAGCCCGGAUACAACUGGAGGGGGCGG: the self-cleavage worked out at 0.101.

AACACUGCCAAUGCCGGUCCCAAGCCCGGAUACAAUUGGAGGGGGCGG: the self-cleavage was determined as 0.122.

Consider AACACUGCCAAUGCCGGUCCCAAGCCCGGAUUAAAGUGGAGGGGCCGG, for which the self-cleavage amounted to 0.506.

As to AACACUGCCAAUGCCGGUCCCAAGCCCGGAUUAAAGUGGAGGGGACGG, the self-cleavage is 0.823.

For the variant AACACUGCCAAUGCCGGUCCCAAGCCCGGAUACAAGAGGAGGGGGCGG, the self-cleavage is 0.447.

AACACUGCCAAUGCCGGUCCCAAGCCCGGAUUAAAGUGGUGGGGGCGG: the self-cleavage was 0.193.

As to AACACUGCCAAUGCCGGUCCCAAGCCCGGAUAGAAGUGGAGGGGGCGG, the self-cleavage amounted to 0.96.

With AACACUGCCAAUGCCGGUCCCAAGCCCGGAUACAAGUGGAGGGGGCGG, the self-cleavage is 0.975.
